Values belong to the binder of their own block, whether it stands above or below them.
Columns and labels:
NIX(1–182)-GST = NIX(1–182)-GST (Homo sapiens (Human), UniProt O60238); experiment: microscopy-based bead assay
[1] = target: GST-FAM134C (residues 250–466) (Homo sapiens (Human), UniProt Q86VR2); experiment: microscopy-based bead assay
Sequence of GST-FAM134C (residues 250–466) (Q86VR2 250-466): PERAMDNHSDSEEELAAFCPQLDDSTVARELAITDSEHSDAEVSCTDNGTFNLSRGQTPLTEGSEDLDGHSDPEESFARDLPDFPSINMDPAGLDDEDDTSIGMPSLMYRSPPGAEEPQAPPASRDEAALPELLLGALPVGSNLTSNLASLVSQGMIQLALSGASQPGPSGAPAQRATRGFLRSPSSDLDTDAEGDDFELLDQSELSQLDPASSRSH

Sequence of NIX(1–182)-GST (O60238 1-182): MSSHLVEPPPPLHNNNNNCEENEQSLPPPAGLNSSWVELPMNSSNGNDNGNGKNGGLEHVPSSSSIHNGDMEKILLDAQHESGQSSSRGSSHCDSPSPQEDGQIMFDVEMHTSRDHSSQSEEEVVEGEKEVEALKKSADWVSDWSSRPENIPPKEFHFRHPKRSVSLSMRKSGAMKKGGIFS

binding result (NIX(1–182)-GST): binds
B1: mCherry-tagged WIPI1 (protein)
chain: MEAEAADAPPGGVESALSCFSFNQDCTSLATGTKAGYKLFSLSSVEQLDQVHGSNEIPDVYIVERLFSSSLVVVVSHTKPRQMNVYHFKKGTEICNYSYSSNILSIRLNRQRLLVCLEESIYIHNIKDMKLLKTLLDIPANPTGLCALSINHSNSYLAYPGSLTSGEIVLYDGNSLKTVCTIAAHEGTLAAITFNASGSKLASASEKGTVIRVFSVPDGQKLYEFRRGMKRYVTISSLVFSMDSQFLCASSNTETVHIFKLEQVTNSRPEEPSTWSGYMGKMFMAATNYLPTQVSDMMHQDRAFATARLNFSGQRNICTLSTIQKLPRLLVASSSGHLYMYNLDPQDGGECVLIKTHSLLGSGTTEENKENDLRPSLPQSYAATVARPSASSASTVPGYSEDGGALRGEVIPEHEFATGPVCLDDENEFPPIILCRGNQKGKTKQS

binding result (NIX(1–182)-GST): no binding
B2: GFP-tagged TBK1 (protein)
chain: MQSTSNHLWLLSDILGQGATANVFRGRHKKTGDLFAIKVFNNISFLRPVDVQMREFEVLKKLNHKNIVKLFAIEEETTTRHKVLIMEFCPCGSLYTVLEEPSNAYGLPESEFLIVLRDVVGGMNHLRENGIVHRDIKPGNIMRVIGEDGQSVYKLTDFGAARELEDDEQFVSLYGTEEYLHPDMYERAVLRKDHQKKYGATVDLWSIGVTFYHAATGSLPFRPFEGPRRNKEVMYKIITGKPSGAISGVQKAENGPIDWSGDMPVSCSLSRGLQVLLTPVLANILEADQEKCWGFDQFFAETSDILHRMVIHVFSLQQMTAHKIYIHSYNTATIFHELVYKQTKIISSNQELIYEGRRLVLEPGRLAQHFPKTTEENPIFVVSREPLNTIGLIYEKISLPKVHPRYDLDGDASMAKAITGVVCYACRIASTLLLYQELMRKGIRWLIELIKDDYNETVHKKTEVVITLDFCIRNIEKTVKVYEKLMKINLEAAELGEISDIHTKLLRLSSSQGTIETSLQDIDSRLSPGGSLADAWAHQEGTHPKDRNVEKLQVLLNCMTEIYYQFKKDKAERRLAYNEEQIHKFDKQKLYYHATKAMTHFTDECVKKYEAFLNKSEEWIRKMLHLRKQLLSLTNQCFDIEEEVSKYQEYTNELQETLPQKMFTASSGIKHTMTPIYPSSNTLVEMTLGMKKLKEEMEGVVKELAENNHILERFGSLTMDGGLRNVDCL

binding result [1]: binds
binding result (NIX(1–182)-GST): no binding
B3: GFP-FIP200 C-terminal region (CTR), residues 1429–1591 (protein)
chain: ADEGRVDSAMETSMMSVQENIHMLSEEKQRIMLLERTLQLKEEENKRLNQRLMSQSMSSVSSRHSEKIAIRDFQVGDLVLIILDERHDNYVLFTVSPTLYFLHSESLPALDLKPASGASRRPWVLGKVMEKEYCQAKKAQNRFKVPLGTKFYRVKAVSWNKKV

binding result (NIX(1–182)-GST): no binding
B4: mCherry-WIPI3 (protein)
chain: not shown

From PMC12339401 (2025)
